The target in the experiment is factor H CCPs 6 & 7 (human, UniProt P08603, 402^His). Put plainly: SPR.

B1: factor H binding protein, construct comprising regions A, B and C but lacking the lipid anchor (natural protein)
chain: GGVAADIGAGLADALTAPLDHKDKGLQSLTLDQSVRKNEKLKLAAQGAEKTYGNGDSLNTGKLKNDKVSRFDFIRQIEVDGQLITLESGEFQVYKQSHSALTAFQTEQIQDSEHSGKMVAKRQFRIGDIAGEHTSFDKLPEGGRATYRGTAFGSDDAGGKLTYTIDFAAKQGNGKIEHLKSPELNVDLAAADIKPDGKRHAVISGSVLYNQAEKGSYSLGIFGGKAQEVAGSAEVKTVNGIRHIGLAAKQ
In the case of B1, the Kd is about 5 nM.

Values taken from article PMC2670278 (Nature, 2009).
